Patent publication US20090311265A1

Tests used:
[1] = target: full-length HA from isolate A/Vietnam/1194/2004 (H5N1TV) on PER.C6 cells (influenza A virus A/Vietnam/1194/2004 (H5N1)) (UniProt Q80A26); assay: flow cytometry, transfected PER.C6 cells, separate experiment
[2] = target: recombinant HA, subtype H7 (A/Netherlands/219/03 (H7N7)) (influenza A virus A/Netherlands/219/03 (H7N7)); assay: ELISA, coated HA, IgG 5 µg/ml
[3] = target: recombinant HA, subtype H9 (A/Hong Kong/1073/99 (H9N2)) (influenza A virus A/Hong Kong/1073/99 (H9N2)); assay: ELISA, coated HA, IgG 5 µg/ml
[4] = target: recombinant HA, subtype H1 (A/New Caledonia/20/99 (H1N1)) (influenza A virus A/New Caledonia/20/99 (H1N1)) (UniProt Q289M7); assay: ELISA, coated HA, IgG 5 µg/ml
[5] = target: recombinant HA, subtype H5 (A/Vietnam/1203/2004 (H5N1)) (influenza A virus A/Vietnam/1203/2004 (H5N1)) (UniProt Q80A26); assay: ELISA, coated HA, IgG 5 µg/ml
[6] = target: recombinant HA, subtype H3 (A/Wyoming/3/2003(H3N2)) (influenza A virus A/Wyoming/3/2003 (H3N2)); assay: ELISA, coated HA, IgG 5 µg/ml
[7] = target: full-length HA from isolate A/Vietnam/1194/2004 (H5N1TV) on PER.C6 cells (influenza A virus A/Vietnam/1194/2004 (H5N1)) (UniProt Q80A26); assay: flow cytometry, transfected PER.C6 cells

Substance	flow cytometry signal at 0.1 µg/ml [1]	flow cytometry signal at 1 µg/ml [1]	flow cytometry signal at 10 µg/ml [1]	OD 492 nm [2] [OD 492 nm]	OD 492 nm [3] [OD 492 nm]	OD 492 nm [4] [OD 492 nm]	OD 492 nm [5] [OD 492 nm]	OD 492 nm [6] [OD 492 nm]	flow cytometry signal at 0.1 µg/ml [7]	flow cytometry signal at 1 µg/ml [7]	flow cytometry signal at 10 µg/ml [7]
CR3014 (antibody)	10.5	7.95	9.15	0.17	0.16	0.08	0.09	0.07	6.21	10	13.1
CR6261 (antibody)				0.31							
